The values below are quoted from earlier work in publication PMC6244792.

“And” between values parts separate entries of the source, which are not always exact repeats. Equal entries are not always repeated. Where two headings read alike, the source gives them in different places.

The target in series [1] is LHCP L18 peptide (Arabidopsis thaliana). The series is described as follows: ITC. On the technique in general: Isothermal titration calorimetry measures the heat released or taken up as one component is titrated into another.
In series [2] the target is cpSRP54 (Arabidopsis thaliana) (UniProt P37107). The series is described as follows: MST.
Sequence of cpSRP54 (Arabidopsis thaliana) (P37107 76-564): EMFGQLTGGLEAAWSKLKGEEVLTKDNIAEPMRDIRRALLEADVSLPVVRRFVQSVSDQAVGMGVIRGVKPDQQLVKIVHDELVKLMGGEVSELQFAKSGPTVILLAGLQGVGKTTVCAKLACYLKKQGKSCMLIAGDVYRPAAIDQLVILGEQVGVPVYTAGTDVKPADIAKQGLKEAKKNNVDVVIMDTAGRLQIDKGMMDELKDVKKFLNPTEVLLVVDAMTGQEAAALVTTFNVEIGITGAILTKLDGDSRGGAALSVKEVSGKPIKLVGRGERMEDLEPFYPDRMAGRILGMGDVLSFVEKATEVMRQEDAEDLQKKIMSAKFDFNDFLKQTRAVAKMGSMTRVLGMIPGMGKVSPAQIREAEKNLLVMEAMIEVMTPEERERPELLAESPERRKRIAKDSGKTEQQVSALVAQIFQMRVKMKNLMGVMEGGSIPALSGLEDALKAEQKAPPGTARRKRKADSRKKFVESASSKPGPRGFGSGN
Series [3] shares this target. The series is described as follows: FCS.
Series [4] concerns the target cpSRP54 peptide RRKRp10 RRKRp10 (Arabidopsis thaliana) (UniProt P37107).
Series [5] has as its target cpSRP54 M domain (Arabidopsis thaliana) (UniProt P37107). The series is described as follows: SPR. For orientation: In SPR one partner is held on a chip, and binding of the other changes the refractive index at the surface.
The target in series [6] is LHCP L11 peptide (Arabidopsis thaliana). The series is described as follows: FA.
The target is the same in series [7]. The series is described as follows: FA. This is another data set of the same source.
Series [8] addresses Alb3 C-terminus (Arabidopsis thaliana) (UniProt Q8LBP4). The experiment in a line: FA.
Series [9] has as its target RRKRp10 (cpSRP54 C-terminal peptide) (Arabidopsis thaliana) (UniProt P37107).
Series [10] deals with LHCP L18 peptide (Arabidopsis thaliana). The experiment in a line: ITC. The source holds these as a separate data set.
The target in series [11] is cpFtsY (Arabidopsis thaliana) (UniProt O80842). The experiment in a line: FRET.
Sequence of cpFtsY (Arabidopsis thaliana) (O80842 41-366): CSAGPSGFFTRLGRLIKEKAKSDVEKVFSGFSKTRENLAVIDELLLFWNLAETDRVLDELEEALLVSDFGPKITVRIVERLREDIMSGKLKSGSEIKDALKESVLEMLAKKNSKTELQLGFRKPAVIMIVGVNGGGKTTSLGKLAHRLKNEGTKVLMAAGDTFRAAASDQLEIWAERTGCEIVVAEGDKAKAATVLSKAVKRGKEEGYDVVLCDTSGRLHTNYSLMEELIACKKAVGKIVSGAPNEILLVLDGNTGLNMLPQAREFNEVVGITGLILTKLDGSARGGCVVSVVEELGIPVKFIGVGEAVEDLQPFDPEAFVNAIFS
The target is the same in series [12]. The series is described as follows: FRET. This is another data set of the same source.
The target is the same in series [13]. The experiment in a line: FRET. The source holds these as a separate data set.

Sequence of cpSRP54 (P37107 76-564): as the sequence (P37107 76-564) above
Sequence of Alb3 C-terminus (Arabidopsis thaliana) (Q8LBP4 339-462): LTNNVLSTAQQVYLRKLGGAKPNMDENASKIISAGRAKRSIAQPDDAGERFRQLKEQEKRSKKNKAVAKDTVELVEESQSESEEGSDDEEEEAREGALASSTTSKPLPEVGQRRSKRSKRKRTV
Sequence of cpSRP54 NG domain (P37107 76-370): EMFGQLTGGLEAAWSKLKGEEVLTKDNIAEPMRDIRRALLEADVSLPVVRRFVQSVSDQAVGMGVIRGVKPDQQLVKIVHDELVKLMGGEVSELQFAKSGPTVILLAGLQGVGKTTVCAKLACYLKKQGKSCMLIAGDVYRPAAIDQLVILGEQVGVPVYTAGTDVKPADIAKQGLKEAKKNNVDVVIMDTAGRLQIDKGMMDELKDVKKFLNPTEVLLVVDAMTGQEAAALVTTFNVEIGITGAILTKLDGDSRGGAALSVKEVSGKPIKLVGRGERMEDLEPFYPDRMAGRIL
Sequence of cpSRP54 M domain (Arabidopsis thaliana) (P37107 371-564): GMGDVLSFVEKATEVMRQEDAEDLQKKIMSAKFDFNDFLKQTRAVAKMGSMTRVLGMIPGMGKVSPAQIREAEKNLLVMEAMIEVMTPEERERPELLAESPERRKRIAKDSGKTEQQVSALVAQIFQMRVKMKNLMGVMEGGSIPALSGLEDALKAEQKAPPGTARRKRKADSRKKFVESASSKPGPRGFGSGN
Sequence of cpSRP54 peptide RRKRp10 RRKRp10 (Arabidopsis thaliana) (P37107 whole entry, looked up, tested part not stated): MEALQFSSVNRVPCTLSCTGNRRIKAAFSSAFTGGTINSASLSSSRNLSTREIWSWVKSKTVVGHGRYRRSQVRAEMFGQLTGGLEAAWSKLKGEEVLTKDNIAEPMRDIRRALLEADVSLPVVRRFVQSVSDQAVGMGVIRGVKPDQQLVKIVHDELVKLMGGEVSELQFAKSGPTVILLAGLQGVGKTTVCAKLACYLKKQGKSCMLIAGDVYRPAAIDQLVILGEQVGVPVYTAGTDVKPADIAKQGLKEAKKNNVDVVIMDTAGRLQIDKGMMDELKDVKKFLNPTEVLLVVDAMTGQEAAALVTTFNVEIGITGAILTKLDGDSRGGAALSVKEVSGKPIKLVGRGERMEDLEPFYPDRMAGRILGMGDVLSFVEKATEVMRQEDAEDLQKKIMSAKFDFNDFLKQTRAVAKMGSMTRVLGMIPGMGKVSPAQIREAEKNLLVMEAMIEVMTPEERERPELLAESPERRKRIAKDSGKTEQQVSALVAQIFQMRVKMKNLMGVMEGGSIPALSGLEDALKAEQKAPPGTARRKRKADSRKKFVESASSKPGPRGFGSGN
Sequence of RRKRp10 (cpSRP54 C-terminal peptide) (Arabidopsis thaliana) (P37107 whole entry, looked up, tested part not stated): as above

Regarding cpSRP43 (from UniProt O22265), the Kd – broadly, the free concentration of one partner at which half of the binding sites on the other are occupied at equilibrium, for simple one-to-one binding – in series [1] is 1170 nM and 322 nM; in [2], 50 nM; in [3], 95 nM; in [4], 390 nM; in series [5], 2.5 nM; in series [6] it was 22 nM. Besides, the Kd in series [7] was 11 nM; in [8] it was 18000 nM and 12000 nM and 15000 nM; in [9], 390 nM; in series [10] it was 107 nM.
Take cpSRP54 NG domain (from UniProt P37107): in [11], the Kd is 12000 nM.
Regarding cpSRP54 (from UniProt P37107), the Kd in series [12] was 130 nM; in series [11], 2340 nM; in series [13], 770 nM.
